From the DeepSol protein solubility set

Assay: soluble on expression in E. coli; label from the status in PepcDB or PDB records

| Sequence | soluble on expression in E. coli |
| --- | --- |
| MFDIGFSELLLVFVIGLIVLGPQRLPVAVKTVAGWIRALRSLATTVQNELTQELKLQEFQDSLKKVEKASLENLTPELKASMDELRQAAESMKRTYSANDPEQASDEAHTIHNPVVKGNETQHEGVTPAAAETQASAPEQKPEPVKANVPESTETASVATIDAEKKSAAPVVESSPSSSDKPLEHHHHHH | not soluble |
| MGSSHHHHHHGKTIFVIVPTNEEQVAFLEALAKQDELNFDWQNPPTEPGQPVVILIPSDMVEWFLEMLKAKGIPFTVYVEEGGSENLYFQGGGGGGFYVRTPGKRLLEDKVGKDGLSHYSSEFSSRSSSAELKESRASKCSTTTKRSFAENAAGGTADSSKSHRSMPEVVSAQSQHSKTTGSHKRD | soluble |
| MVYYEIIKDIVFTYNLQFTHLIHNDRISEVNLGGVTMRSIITQICNGVLHGQSYQSGSNDLDKGNSEIFASSLFVHLNEQGKEIIKHKDSDDKIVIGYTKDGMAFQIVVDGFYGCERQAVFSFIDNYVLPLIDNFSLDLTRYPDSKKVTESLIHTIYSLRSKHAPLAEFTMSLCVTYQKDEQLFCAGFGIGDTGIAIKRNEGTIEQLVCHTEVDGFKDAFDNYSSANIDLVIERNSVFNTKVMPGDELVGYTYVPPMLEMTEKEFEVETVDGKKINKRIVRHLNLDPGNFDDKDPLFSQLLQVVKSKQKQLVEQAKETGQIQRFGDDFTVGRLVIPDQLLINQLRIHALSIGVSDGLLSYIKNENENKGFLGIYGFFTGADKNIEKATLYKNLIAKYQNNHFISLIILSALVSDSKTPLMTQYLVGYLDFPSKALLANKITELLLKELENPDMREILGSRLATDVIEELETKIIRYIHNPAGSDIHSTLNLWTADKIKAATNSSLTI | not soluble |
| MGSDKIHHHHHHMQIKALIYFDELVRTRSMRAAAERLNVQPTAFARQIDQLEHYFGTVLIERSSRGIQLTAAGELLAARAGKTLRELNHVHQLIDDLQGLKRGHVTIHANGATVANLLAPALADFSLVYPNIRFSVTISSAGQAMEALSSAKADMAVTLFSEPDPGIRVRARAQIVYDVIAASHHPAAHLAEMTVTELARFPLAVPDGSFGARRAFDAWFSKAGLELDPVFVTGSLEMQRELVLRGAALTLLPAQTVARERRSGELVVIPVAGGAGIRTPIDLCVAGDRQLSFAASKLVDAVERFMREQMGK | not soluble |
| MRKEAIYHRPADNFAYAYDSETLHLRLRTKKDDIDRVELLHGDPYDWQNGAWQFQMMPMRKTGSDELFDYWFAEVKPPYRRLRYGFVLYSGEEKLVYTEKGFYFEVPTDDTAYYFCFPFLHRVDLFEAPDWVKDTVWYQIFPERFANGNPSISPEGSRPWGSEDPTPTSFFGGDLQGIIDHLDYLVDLGITGIYLTPIFRSPSNHKYDTADYFEVDPHFGDKETLKTLIDRCHEKGIRVMLDAVFNHCGYEFAPFQDVWKNGESSKYKDWFHIHEFPLQTEPRPNYDTFAFVPQMPKLNTANPEVKRYLLDVATYWIREFDIDGWRLDVANEIDHEFWREFRQEVKALKPDVYILGQIWHDAMPWLRGDQFDAVMNYPFTDGVLRFFAKEEISARQFANQMMHVLHSYPNNVNEAAFNLLGSHDTSRILTVCGGDIRKVKLLFLFQLTFTGSPCIYYGDEIGMTGGNDPECRKCMVWDPMQQNKELHQHVKQLIALRKQYRSLRRGEISFLHADDEMNYLIYKKTDGDETVLVIINRSDQKADIPIPLDARGTWLVNLLTGERFAAEAETLCTSLPPYGFVLYAIEHW | soluble |
| KRQKIHLGDRSQKCSKCGIIFIRRSTLSRRKTPMCEKCRKDSCQEAALNKDEGNESGKKT | soluble |
| MRGSHHHHHHTDPALRAALKATIYKATVNVADLDRNQFLDASLTLARHPSETQERMMLRLLAWLKYADERLQFTRGLCADDEPEAWLRNDHLGIDLWIELGLPDERRIKKACTQAAEVALFTYNSRAAQIWWQQNQSKCVQFANLSVWYLDDEQLAKVSAFADRTMTLQATIQDGVIWLSDDKNNLEVNLTAWQQPSGLCGR | soluble |
| MGSDKIHHHHHHMKTITTWQNNIQIVKDATNIVEISKGFSPDKKYIVTTIDEEKYLLRIGDIQEYERRKIEFQILNEMVKRNVQAQRPIEIGILEEEGVCYSIFSYLEGEDAKKLLPTYSPKKQYEIGIEAGKDLAKMHTYEAPNDTLPWYERAMKKHQKYVEAYKTCGIKIKNDDKIIKFIDENEMYLQNRPNQFQHDDFHLENIIVRDGKYVGVVDFNGYDWGDPLHDFVKIALFARDISIPYSIGQIEGYFNGRIPEEFWKLYAVYVGMTVFSSVVWTLRAAPHMLDDTLERLTVVLEDHKDFELLKPIWFQPEKIDIKK | not soluble |
| MSLEQMLWDAACSIRGEKDAAKFKDYLLPLLFLKRLSDVFDDEIERLAEEYGDRATALEIAESDHSLLRFYLPPEARWAVISGRESFDWPLDDRGRPTAPRDIGEHLTKAVRAVVKQNPTLSGVIDVVDFAAERNGERDINPAKLRGVVETFSDPRYRLGLADVQPDFLGRAYEYLLRKFAEGSGQSAGEFFTPTEVGFLMAHILRPKPGETCHDYACGSAGLLIKLQLVARELDPTSRVPLKLSGQELQAESYAVAQMNAIIHDMEVELARGDTMINPKFREASGKIRGHDIVVANPMWNQPFAADLFANDPFDRFRTAGGITSGKGDWAWLQHTLACMNDHGRAAVVLDTGAVTRGSGSKNEDKERTIRKWFVEQDLIDGVILLPENLFYNTTAAGVIVVLSRRKPAARKGKIVLLNASRRFKKGRPKNYLPEEDIRPLAAMYLKGEPVEGELAVITTEQAREADYNLSPSRWVGQNGDAEIGSIPNLLRALEQLNEEDASLTSGLLQLLRPLAKTGDAEGHHHHHH | soluble |
| MEIKLQGKVSLVTGSTRGIGRAIAEKLASAGSTVIITGTSGERAKAVAEEIANKYGVKAHGVEMNLLSEESINKAFEEIYNLVDGIDILVNNAGITRDKLFLRMSLLDWEEVLKVNLTGTFLVTQNSLRKMIKQRWGRIVNISSVVGFTGNVGQVNYSTTKAGLIGFTKSLAKELAPRNVLVNAVAPGFIETDMTAVLSEEIKQKYKEQIPLGRFGSPEEVANVVLFLCSELASYITGEVIHVNGGMF | soluble |
| MDRATVVGGAARRLAMIAVIIPAHNEAECMAACLASVFLAASHPELREPVEVIVAVDRCTDATAALAQALGARVIDVPVPGGVGIARAAAASKAIALGADWLAVTDADSRVPADWLVEQRRADADVFCGVVQVEDWLDYSDEVRCRFEQTQATGQGHGRIHGANLGVSAALYQQCGGFPAVTCSEDVALVHALQAINASIAWSPRSVVWTSARRQARAIGGFSDFLKKLEASTCVPALEHHHHHH | not soluble |
| MGKIGIFFGTDSGNAEAIAEKISKAIGNAEVVDVAKASKEQFNSFTKVILVAPTAGAGDLQTDWEDFLGTLEASDFANKTIGLVGLGDQDTYSETFAEGIFHIYEKAKAGKVVGQTSTDGYHFEASKAVEGGKFVGLVIDEDNQDDLTDERISKWVEQVKGSFA | soluble |
| MIYSMTAYARKEVKGDWGSAVWEIRSVNQRYLETYFRLPEQFRGLEPLLRERFRQRLSRGKIECHLRFEANPAAQSHLTINEGLAQQVINAANQIMHMTGELSRINPFQVMQWPGVMETPEQDMDAINQALLSAFDEGVDEFIAARGREGDNMKALIEQRLQAISAEVVKVRARMPEILEWQRERLFSKFEEAKIELDASRVEQELILLAQKSDVAEELDRLDSHVKEAREVLKKGGSCGRKLDFMMQEFNRESNTLASKSISTDITASGVELKVLIEQMREQIQNIE | not soluble |
| MTFMKLYFFGDDNNKPKLSEHLIIYILSLLDPKSQSVASLVNKDWSRLVQLTRQYLSMLPVIHRIPLFANLGLDVLKLKLMTGGMTNSTVRLRIKNAPEKWVMRIPGIGSSAFITRRDEAHNAKQAEKLGLNVPIAFFDPEDGLQVTRFIEGVHSLDDKALARKEILHEVASMMRRLHKSPPFDNNTLFFERNEELLDLLKRKPFNFPGEIEFVEQQMKNLKEIFSSYHIQQFPCHNDTTPLNFILSENPEIKGSEKIHQIDWEYSSNNDFIWDLVYFMVEAKLNREQQLILLKAYFNTEELSDSLLAWIEVYKPIIEWWITIWSWTQLANGANAVDLSSYEQLGLERYHNTLSHLKSEDYVKALALIEADSHSLTFTGQRPF | not soluble |
| FSDTLEESSPIAAIFDTENLEKISITEGIERGIVDSITGQRLLEAQACTGGIIHPTTGQKLSLQDAVSQGVIDQDMATRLKPAQKAFIGFEGVKGKKKMSAAEAVKEKWLPYEAGQRFLEFQYLTGGLVDPEVHGRISTEEAIRKGFIDGRAAQRLQDTSSYAKILTCPKTKLKISYKDAINRSMVEDITGLRLLEAASVSSKGLPSPYNMSSA | soluble |
| MSQLVECVPNFSEGNNQEVIDAISQAISQTPGCVLLDVDAGPSTNRTVYTFVGQPECVVEGALSAARTASQLIDMRKHKGEHPRMGALDVCPFIPVRGVSMDECVLCAKAFGQRLAEELNVPVYLYGEAAQMPSRQTLPAIRAGEYEALPEKLKQAEWVPDFGPSSFVPSWGATVTGARKFLIAFNINLLSTKEQAHRIALNLREQGRGKDQPGRLKKVQGIGWYLEEKNLAQVSTNLLDFEVTALHTVYEEARREAQELNLPVVGSQLVGLVPLKALLDAAAFYCDKEKLFVLEEEHRIRLVVNRLGLDSLAPFDPKERIIEYLVPDSGPEQSLLDASLRAFVREVGARSAAPGGGSVAAAVAALGAALASMVGQMTYGRRQFDHLDSTMRRLIPPFHAASAQLTSLVDADARAFAACLGAIKLPKNTPEERDRRTCALQEGLRQAVAVPLKLAETVSQLWPALQELAQCGNLSCLSDLQVAAKALETGVFGAYFNVLINLKDMTDDVFKEKTRHRISSLLQEAKTQAALVLGSLEARKE | soluble |
| MATPALLPGVDLAAFAAALAARLRDAGIPVSASGQASLVQALQQLVPRTPAALYWGARLTLVSRVDELATFDAVFASLFGVFGSAEPDGANRPPPPIAGPRTPVAGVGHRAKRRSCAAQAQNLPWDTRSLTMASAGQGGPSRTLPDVLPSRIVARADEPFDQFDPDDLRLLGAWLEATMARWPRRRSMRFESSPHGKRIDLRATMNASRSTGWESVLLARIRPRRRPRRVLLLCDVSRSMQPYAAIYLRLMRAAVLRRAGGHPEVFAFSTSLTRLTSVLSHRSAEMALHRANARVTDRYGGTFIGRSVAALLAPPHGNALRGAVVIIASDGWDSDPPDVLVHALTRVRRRAELLVWLNPRAAHPEFQPRAGSMAAALPYCDLFLPAHSLAGLHQLLLALAGAR | soluble |
| MIITKNISLPELYQEWLDLKIMPSNRSDVTKKKYLSRKVTLEKLFGDKPISQIRPSEYQRIMNNYGQRVSRNFLGRLNTGVKQSLQMAIADKVMIEDFTQNVELFSTVKLEHHHHHH | soluble |
| AVKGLGKPDQVYDGSKIRVGIIHARWNRVIIDALVKGAIERMASLGVEENNIIIETVPGSYELPWGTKRFVDRQAKLGKPLDVVIPIGVLIKGSTMHFEYISDSTTHALMNLQEKVDMPVIFGLLTCMTEEQALARAGIDEAHSMHNHGEDWGAAAVEMAVKFGKNAF | soluble |
| MSEDRSSNGQKSWLGKLTQAFVHEPKNRQELLELLREAHQNKLLDSEALAIVEGAIQVADLQVRDIMVPRSQMISIKATQTPREFLPAVIDAAHSRYPVIGESHDDVLGVLLAKDLLPLILKADGDSDDVKKLLRPATFVPESKRLNVLLREFRANHNHMAIVIDEYGGVAGLVTIEDVLEQIVGDIEDEHDVEEDSYIKPLPSGDFLVKALTPVENFNEFFDSAFSDDEFDTVGGLVMNAFGHLPKRNEITEIGAYRFRILSADSRRIHLLRVTPISRP | not soluble |
